According to patent US10520496B2 (priority 2015, dated 2019):
“And” between values parts separate entries of the source, which are not always exact repeats. Identical values can stand only once. “Also recorded” adds a separate entry of the source. Like-named read-outs stand apart in the source and are kept apart here. *: point of attachment. 5FAM = O=C1OC2(c3ccc(O)cc3Oc3cc(O)ccc32)c2ccc(C(=O)*)cc21; DABCYL = quencher, CN(C)c1ccc(/N=N/c2ccc(C(=O)*)cc2)cc1

Assays:
dispase = dispase (Paenibacillus polymyxa, UniProt P29148); test: Enzymes that can cleave the substrate (Table 2); format: biochemical; conditions: general statement
[1] = water
Botulinum neurotoxin B = Botulinum neurotoxin B (Clostridium botulinum, UniProt P10844)
Collagenase I/II = format: biochemical; conditions: general statement
Description: The cleavage sites produced by various proteases were analyzed using the known sequence of the novel protease substrate 5FAMcollagenPPT. As provided herein, the cleavage sites were determined based on the results of mass spectrometric analysis of the protease substrate 5FAMcollagenPPT peptide fragments obtained from an enzymatic reaction with various enzymes tested.
Cleavage of the novel fluorogenic protease substrate 5FAMcollagenPPT was further investigated using various proteases. After cleavage of the substrate by proteases, the resulting cleavage products of the protease substrate were specifically analyzed using matrix-assisted laser desorption/ionization (MALDI) mass spectrometry.
Next, the specific sequences of the protease substrate 5FAMcollagenPPT cleavage products were analyzed using MALDI. Briefly, each protease was incubated for 15 minutes with the protease substrate at 22° C. Buffer conditions and concentrations of the protease substrates and proteases were as described in Example 2. The uncleaved 5FAMcollagenPPT substrate has a molecular weight of 1669.8 Daltons. The molecular weights of the resulting products of the protease substrate after cleavage by various proteases are shown in Table 8 and FIG. 13.

Collagenase II = Collagenase II (Hathewaya histolytica, UniProt Q46085); format: biochemical, Clostridium histolyticum
Neutral Protease = format: biochemical, Clostridium histolyticum; conditions: for Km / Vmax: neutral protease 20 μg/ml, substrate 5-80 μM, Example 2; for effect of zinc on measured RFU (enzymatic cleavage): zinc salt 16.7 μM, presence or absence of CaCl2 4.14 mM, vs control and NaSO4
Excerpt: GraphPad Prism (GraphPad Software 6.0, La Jolla, Calif., USA) was used for analyzing the data and generating the graphs. Both non-linear Michaelis-Menten and linear Lineweaver-Burk plots were used for the enzyme kinetics study. Kinetic parameters Vmax and Km were obtained from the Michaelis-Menten model by plotting the reaction velocity at different concentration of peptide substrate. Non-linear Michaelis-Menten curves for the enzymatic reaction in the presence and absence of CaCl2 were compared using Prism. All samples were run in duplicate, and results are reported as average±standard error of the mean (SEM). One-way or two-way ANOVA analysis followed by Tukey's multiple comparisons test was used to conduct multiple variable comparisons when applicable. Differences in data were considered significant when P values were less than 0.05.

elastase = elastase (Sus scrofa, UniProt P00772); format: biochemical
collagenase = test: Enzymes that can cleave the substrate (Table 2); format: biochemical; conditions: general statement
chymotrypsin = chymotrypsin (Bos taurus, UniProt P00766); format: biochemical
Thermolysin = Thermolysin (Bacillus thermoproteolyticus, UniProt P00800); format: biochemical; conditions: for effect of zinc on measured RFU (enzymatic cleavage): zinc salt 16.7 μM, presence or absence of CaCl2 4.14 mM, vs control and NaSO4
Collagenase I = Collagenase I (Hathewaya histolytica, UniProt Q9X721); format: biochemical, Clostridium histolyticum; conditions: for Km / Vmax: collagenase I 0.45 μg/ml; for effect of zinc on measured RFU (enzymatic cleavage): zinc salt 16.7 μM, presence or absence of CaCl2 4.14 mM, vs control and NaSO4
[2] = tested on: proteases listed in Table 7 except thermolysin (Collagenase I Liq, Collagenase II Liq, Collagenase NB1, Collagenase I/II, Neutral Protease NB); format: biochemical; conditions: within the first hour; almost all proteases tested except thermolysin; peptide 10 μM; protease 20 μg/mL; pH 7.5
trypsin = conditions: for Enzymes that do not cleave 5FAMcollagenPPT: trypsin: general statement
Botulinum neurotoxin A = Botulinum neurotoxin A (Clostridium botulinum, UniProt P0DPI0)
[3] = enzyme 0.3125-10 μg/mL, substrate 50 μM, Example 3
[4] = general statement, listed as 5FAM collagenPPT
[5] = Example 3 (FIG. 10), thermolysin 17 μg/ml
[6] = with 4.14 mM calcium, thermolysin 17 μg/ml, substrate 5-80 μM, Example 2
[7] = without calcium, thermolysin 17 μg/ml, substrate 5-80 μM, Example 2
[8] = with 4.14 mM calcium, substrate 5-80 μM, Example 2
[9] = without calcium, substrate 5-80 μM, Example 2

Thermolysin, sequence (P00800 233-548): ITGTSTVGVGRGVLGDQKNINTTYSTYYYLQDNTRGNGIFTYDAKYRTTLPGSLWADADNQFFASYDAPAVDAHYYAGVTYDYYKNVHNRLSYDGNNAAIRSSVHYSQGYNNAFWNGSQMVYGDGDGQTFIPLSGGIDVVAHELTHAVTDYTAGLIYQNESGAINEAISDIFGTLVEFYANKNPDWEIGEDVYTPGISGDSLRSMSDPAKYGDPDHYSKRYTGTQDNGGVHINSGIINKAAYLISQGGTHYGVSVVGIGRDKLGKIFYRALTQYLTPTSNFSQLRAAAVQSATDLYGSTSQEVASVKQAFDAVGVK
Collagenase I, sequence (Q9X721 111-1118): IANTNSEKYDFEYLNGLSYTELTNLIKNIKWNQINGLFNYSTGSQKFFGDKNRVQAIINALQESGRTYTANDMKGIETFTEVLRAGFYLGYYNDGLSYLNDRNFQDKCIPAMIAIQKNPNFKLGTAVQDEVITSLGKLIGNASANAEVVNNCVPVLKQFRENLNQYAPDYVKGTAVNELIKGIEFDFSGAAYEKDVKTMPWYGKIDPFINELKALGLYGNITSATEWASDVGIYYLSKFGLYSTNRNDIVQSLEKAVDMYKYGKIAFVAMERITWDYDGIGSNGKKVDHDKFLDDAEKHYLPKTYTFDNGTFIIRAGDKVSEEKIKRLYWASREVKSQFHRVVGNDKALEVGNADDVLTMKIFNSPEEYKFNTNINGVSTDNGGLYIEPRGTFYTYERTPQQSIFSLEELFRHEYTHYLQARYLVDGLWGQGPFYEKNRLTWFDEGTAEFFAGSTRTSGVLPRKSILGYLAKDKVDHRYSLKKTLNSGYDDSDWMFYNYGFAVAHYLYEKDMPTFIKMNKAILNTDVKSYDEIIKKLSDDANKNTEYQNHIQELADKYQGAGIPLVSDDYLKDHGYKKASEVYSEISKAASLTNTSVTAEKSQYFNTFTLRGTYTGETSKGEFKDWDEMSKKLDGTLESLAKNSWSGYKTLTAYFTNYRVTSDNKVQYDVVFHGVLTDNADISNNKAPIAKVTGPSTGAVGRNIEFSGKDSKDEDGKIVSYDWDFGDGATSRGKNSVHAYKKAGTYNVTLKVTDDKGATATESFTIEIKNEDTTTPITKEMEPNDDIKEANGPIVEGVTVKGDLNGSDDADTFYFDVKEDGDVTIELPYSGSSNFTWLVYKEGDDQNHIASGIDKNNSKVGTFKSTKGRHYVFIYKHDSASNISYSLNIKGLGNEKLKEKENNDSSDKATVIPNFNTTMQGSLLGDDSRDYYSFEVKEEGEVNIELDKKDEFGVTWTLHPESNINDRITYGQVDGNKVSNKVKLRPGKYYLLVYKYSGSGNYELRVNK
elastase, sequence (P00772 27-266): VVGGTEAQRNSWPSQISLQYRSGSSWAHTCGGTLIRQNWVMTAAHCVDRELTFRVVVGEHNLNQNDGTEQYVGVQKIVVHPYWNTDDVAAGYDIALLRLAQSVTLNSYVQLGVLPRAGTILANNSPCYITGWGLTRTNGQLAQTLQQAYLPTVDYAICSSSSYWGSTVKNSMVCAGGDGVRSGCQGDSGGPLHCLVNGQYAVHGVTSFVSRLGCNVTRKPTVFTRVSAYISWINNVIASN
dispase, sequence (P29148 287-590): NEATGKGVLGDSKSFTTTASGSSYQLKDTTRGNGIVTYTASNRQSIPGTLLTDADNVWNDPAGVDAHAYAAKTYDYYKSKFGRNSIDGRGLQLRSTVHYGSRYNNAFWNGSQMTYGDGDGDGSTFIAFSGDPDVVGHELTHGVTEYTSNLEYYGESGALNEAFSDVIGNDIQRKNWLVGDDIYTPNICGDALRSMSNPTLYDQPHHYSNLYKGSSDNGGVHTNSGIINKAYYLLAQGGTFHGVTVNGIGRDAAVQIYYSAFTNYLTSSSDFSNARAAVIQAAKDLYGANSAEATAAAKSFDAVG

5-FAM-Ala-Gly-Gly-Pro-Leu-Gly-Pro-Pro-Gly-Pro-Gly-Gly-Lys-[DABCYL]-amide (5FAM-AGGPLGPPGPGGK(DABCYL)-NH2; SMILES CC(C)C[C@H](NC(=O)[C@@H]1CCCN1C(=O)CNC(=O)CNC(=O)[C@H](C)NC(=O)c1ccc2c(c1)C(=O)OC21c2ccc(O)cc2Oc2cc(O)ccc21)C(=O)NCC(=O)N1CCC[C@H]1C(=O)N1CCC[C@H]1C(=O)NCC(=O)N1CCC[C@H]1C(=O)NCC(=O)NCC(=O)N[C@@H](CCCCNC(=O)c1ccc(/N=N/c2ccc(N(C)C)cc2)cc1)C(N)=O) [5FAMcollagenPPT]
Enzymes that can cleave 5FAMcollagenPPT: dispase (dispase): cleaved; also recorded: dispase | solubility [1]: water soluble | Enzymes that can cleave 5FAMcollagenPPT: Botulinum neurotoxin B (Botulinum neurotoxin B): Botulinum neurotoxin A and B | Enzymes that can cleave 5FAMcollagenPPT: class I/II collagenase (Collagenase I/II): cleaved | Enzymes that can cleave 5FAMcollagenPPT: collagenase II (class II) (Collagenase II): shown to cleave; also recorded: cleaved | Km (Collagenase II): 29.7 µM and 24.1 µM and 24.5 µM | Vmax (Collagenase II): 3354.43 RFU/min/μg and 3243.942 RFU/min/μg and 5000 RFU/min/μg | effect of pH on enzymatic cleavage activity (Collagenase II): significantly inhibited | effect of pH on enzymatic cleavage activity (Neutral Protease; between pH 7.0 and pH 8.0, substrate 20 μM): significant difference | Km (Neutral Protease; with 4.14 mM calcium): 45.1 µM | Vmax (Neutral Protease; with 4.14 mM calcium): 29.28 RFU/min/μg | Km (Neutral Protease; without calcium): 74.1 µM | Vmax (Neutral Protease; without calcium): 20.04 RFU/min/μg | cleavage of substrate by elastase, dose response (FIG. 11) (elastase; [3]): do not cleave | Enzymes that do not cleave 5FAMcollagenPPT: elastase (elastase; [4]): elastase | Enzymes that can cleave 5FAMcollagenPPT: collagenase (collagenase): collagenase-specific | cleavage of substrate by chymotrypsin, dose response (FIG. 11) (chymotrypsin; [3]): do not cleave | Enzymes that do not cleave 5FAMcollagenPPT: chymotrypsin (chymotrypsin; [4]): chymotrypsin | Km (Thermolysin; [5]): 34.6 µM | Vmax (Thermolysin; [5]): 24.6 RFU/min/μg | specificity of substrate for thermolysin, dose response (FIG. 11) (Thermolysin; [3]): highly specific | cleavage of substrate by thermolysin (FIG. 9) (Thermolysin; enzyme 2.5, 5, 10 μg/ml, substrate 50 μM, with and without 4.14 mM CaCl2): dose-dependent cleavage; also recorded: cleaved | Enzymes that can cleave 5FAMcollagenPPT: thermolysin (Thermolysin; general statement): cleaved by thermolysin; also recorded: shown to cleave; also recorded: cleavable by thermolysin | effect of pH on enzymatic cleavage activity (Thermolysin; pH 8.0 compared to all other pH conditions, substrate 20 μM): significantly inhibited | Km (Thermolysin; [6]): 24.8 µM | Vmax (Thermolysin; [6]): 25.47 RFU/min/μg | Km (Thermolysin; [7]): 30.4 µM | Vmax (Thermolysin; [7]): 23.7 RFU/min/μg | Km (Collagenase I; Example 3 (FIG. 10)): 28.2 µM | Vmax (Collagenase I; Example 3 (FIG. 10)): 909 RFU/min/μg | Enzymes that can cleave 5FAMcollagenPPT: collagenase I (class I) (Collagenase I; general statement): shown to cleave; also recorded: cleaved | effect of pH on enzymatic cleavage activity (Collagenase I; pH 6.8, 7.0, 7.5, 8.0, substrate 20 μM): influenced by pH except Collagenase I | Km (Collagenase I; [8]): 32.9 µM | Vmax (Collagenase I; [8]): 1008.158 RFU/min/μg | Km (Collagenase I; [9]): 38.1 µM | Vmax (Collagenase I; [9]): 1704.72 RFU/min/μg | cleavage of substrate over time (FIG. 12) [2]: efficient cleavage | cleavage of substrate by trypsin, dose response (FIG. 11) (trypsin; [3]): do not cleave | cleavage of substrate by trypsin (FIG. 9) (trypsin; enzyme 2.5, 5, 10 μg/ml, substrate 50 μM, with and without 4.14 mM CaCl2, compared to thermolysin): significantly diminished reactivity; also recorded: not cleaved | Enzymes that do not cleave 5FAMcollagenPPT: trypsin (trypsin): not degraded; also recorded: resistant to trypsin; also recorded: resistant to cleavage | Enzymes that do not cleave 5FAMcollagenPPT: trypsin (trypsin; listed as 5FAM collagenPPT): trypsin | Enzymes that can cleave 5FAMcollagenPPT: Botulinum neurotoxin A (Botulinum neurotoxin A): Botulinum neurotoxin A and B

[Ca+2].[Cl-].[Cl-] [CaCl2, reference compound]
effect of CaCl2 on the cleavage reaction (Michaelis-Menten curves) (Collagenase II): did not change significantly | effect of CaCl2 on the cleavage reaction (Michaelis-Menten curves) (Neutral Protease; CaCl2 4.14 mM, Neutral Protease 20 μg/ml, substrate 5FAMcollagenPPT 5-80 μM): significantly enhanced | effect of CaCl2 on the cleavage reaction (Michaelis-Menten curves) (Thermolysin; CaCl2 4.14 mM, Thermolysin 17 μg/ml, substrate 5FAMcollagenPPT 5-80 μM): did not change significantly | effect of CaCl2 on the cleavage reaction (Michaelis-Menten curves) (Collagenase I; CaCl2 4.14 mM, Collagenase I 0.45 μg/ml, substrate 5FAMcollagenPPT 5-80 μM): significantly enhanced

O=C(O)CN(CCOCCOCCN(CC(=O)O)CC(=O)O)CC(=O)O [EGTA, ethylene glycol-bis(β-aminoethyl ether)-N,N,N′,N′-tetraacetic acid, reference compound]
effect of EGTA on RFU levels vs controls (Collagenase II): significant differences | effect of EGTA on RFU levels vs controls (Thermolysin; EGTA 25, 50, 100 mM, thermolysin 17 μg/ml, substrate 20 μM): significant differences

[Cl-].[Cl-].[Zn+2] [ZnCl2, reference compound]
effect of zinc on measured RFU (enzymatic cleavage) (Collagenase II): significantly decreased | effect of zinc on measured RFU (enzymatic cleavage) (Neutral Protease; substrate 20 μM): significantly decreased | effect of zinc on measured RFU (enzymatic cleavage) (Thermolysin; substrate 20 μM): significantly decreased | effect of zinc on measured RFU (enzymatic cleavage) (Collagenase I; substrate 20 μM): significantly decreased

O=S(=O)([O-])[O-].[Zn+2] [ZnSO4, reference compound]
effect of zinc on measured RFU (enzymatic cleavage) (Collagenase II): significantly decreased | effect of zinc on measured RFU (enzymatic cleavage) (Neutral Protease; substrate 20 μM): significantly decreased | effect of zinc on measured RFU (enzymatic cleavage) (Thermolysin; substrate 20 μM): significantly decreased | effect of zinc on measured RFU (enzymatic cleavage) (Collagenase I; substrate 20 μM): significantly decreased
